Test results: PMC4318572 (Journal of biomolecular screening, 2014)

B1: GST–Fyn SH3–strep (domain or fragment)
chain: not shown

Key:
Experiment in all cases: AlphaScreen or HTRF
3R1N Tau = 3R1N Tau (human, UniProt P10636-4 1-381)
4R0N Tau = 4R0N Tau (human, UniProt P10636-6 1-383)
P203A Tau = P203A Tau (human, UniProt P10636-8 1-441, P203A)
3R0N Tau = 3R0N Tau (human, UniProt P10636-2 1-352)
P236A Tau = P236A Tau (human, UniProt P10636-8 1-441, P236A)
3R2N Tau = 3R2N Tau (human, UniProt P10636-5 1-410)
4R1N Tau = 4R1N Tau (human, UniProt P10636-7 1-412)
P233A Tau = P233A Tau (human, UniProt P10636-8 1-441, P233A)
[1] = biological target: Tau with P232 mutated to alanine (human, UniProt P10636-8 1-441, P232 (alanine scan))
GST–Fyn SH3–strep = biological target: B1

Measured: binding result

B1
not listed: GST–Fyn SH3–strep
binds: all other assays above

B2: Tat-tagged peptide spanning the 5th and 6th PXXP motifs in Tau (peptide)
peptide: YGRKKRRQRRRRSRTPSLPTPPTREPKK
binds: GST–Fyn SH3–strep
